Measured values taken from PMC8881610.

Molecular target: human GLP-1R, wild-type, on cells (human) (UniProt P43220)
Sequence (P43220 24-463): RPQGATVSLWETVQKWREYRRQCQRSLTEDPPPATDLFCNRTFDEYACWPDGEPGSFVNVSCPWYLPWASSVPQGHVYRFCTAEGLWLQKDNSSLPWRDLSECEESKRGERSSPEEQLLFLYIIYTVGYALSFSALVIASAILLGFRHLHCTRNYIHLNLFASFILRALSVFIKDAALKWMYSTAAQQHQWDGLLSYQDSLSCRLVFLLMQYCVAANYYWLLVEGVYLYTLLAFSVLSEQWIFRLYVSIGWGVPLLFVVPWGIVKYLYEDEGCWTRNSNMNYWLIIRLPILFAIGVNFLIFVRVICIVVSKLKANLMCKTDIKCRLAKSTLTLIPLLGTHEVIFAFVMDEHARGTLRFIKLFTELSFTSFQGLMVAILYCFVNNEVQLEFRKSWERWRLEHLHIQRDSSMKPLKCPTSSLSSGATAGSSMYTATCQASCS

Row | cAMP response, EC50, 0.1% BSA [pM] | Substance | other [pM]
1 | 4.66 | non-acylated tirzepatide (peptide) | 0.9
2 |  | tirzepatide (peptide) | 3.05
